Consider three molecules from paper PMC6581175, “Versatile Oxidase and Dehydrogenase Activities of Bacterial Pyranose 2-Oxidase Facilitate Redox Cycling with Manganese Peroxidase In Vitro” (Applied and Environmental Microbiology, 2019).

The subject of series [1] is CCn1c(=N[N]c2sc3cc(S(=O)(=O)O)ccc3[n+]2CC)sc2cc(S(=O)(=O)O)ccc21. Kind of series: purified protein. Conditions: pH 7.5; 30.0 °C.
The target in series [2] is T1, KaPOx (Kitasatospora aureofaciens, UniProt A0A1E7NAU4).
T1 construct: gene HS99_0024835
T1 sequence (A0A1E7NAU4 1-545): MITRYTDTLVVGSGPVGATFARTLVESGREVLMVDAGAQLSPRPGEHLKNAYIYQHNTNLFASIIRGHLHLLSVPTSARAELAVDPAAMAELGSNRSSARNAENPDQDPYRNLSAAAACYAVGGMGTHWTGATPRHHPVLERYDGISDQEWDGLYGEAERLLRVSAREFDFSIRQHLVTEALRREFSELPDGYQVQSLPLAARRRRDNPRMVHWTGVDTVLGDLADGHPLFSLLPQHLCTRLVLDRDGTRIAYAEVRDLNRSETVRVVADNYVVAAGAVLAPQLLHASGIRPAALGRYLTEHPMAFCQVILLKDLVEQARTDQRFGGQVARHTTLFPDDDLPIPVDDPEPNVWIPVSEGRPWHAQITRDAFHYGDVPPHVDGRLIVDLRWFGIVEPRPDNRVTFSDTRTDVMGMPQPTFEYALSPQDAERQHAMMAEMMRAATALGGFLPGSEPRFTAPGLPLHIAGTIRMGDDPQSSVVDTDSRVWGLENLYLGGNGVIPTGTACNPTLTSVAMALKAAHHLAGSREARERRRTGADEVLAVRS
Kind of series: spectrophotometric electron acceptor reduction. The following applies: apparent, 30 mM D-glucose, nitrogen-bubbled solutions, 50 mM Britton-Robinson pH 7.5, 30°C, kcat per dimer.

Substrate in series [3]: O=C1O[C@H](CO)[C@@H](O)[C@H](O)[C@H]1O
Description: purified protein. The class given is biochemical, Kitasatospora aureofaciens. The following applies: apparent, electron donor, O2 at air saturation (about 250 uM), 50 mM Britton-Robinson pH 7.5, 30°C, kcat per dimer.

Substrate in series [4]: O=C1C=CC(=O)C=C1
Description: purified protein. The following applies: apparent, electron acceptor, 30 mM D-glucose, nitrogen-bubbled solutions, 50 mM Britton-Robinson pH 7.5, 30°C, kcat per dimer.

Substrate in series [5]: O=C1C(Cl)=CC(=Nc2ccc(O)cc2)C=C1Cl
Description: purified protein. The following applies: apparent, electron acceptor, 30 mM D-glucose, nitrogen-bubbled solutions, 50 mM Britton-Robinson pH 7.5, 30°C, kcat per dimer.

The term Km denotes the concentration of substrate that gives half-maximal velocity. The Vmax is the top rate of the reaction or transport when substrate is in excess. One may read the kcat/Km as the turnover number divided by the Michaelis constant. Consider KaPOx (Kitasatospora aureofaciens), for which, in series [1], the Michaelis-Menten constant (Km) stood at 40 ± 0 µM, the Vmax turned out to be 6.1 µmol/min/mg and the kcat/Km was found to be 309000 M⁻¹ s⁻¹.

As for Ferrocenium ion, the Km in series [2] was determined as 1030 ± 1000 µM.

B1: KaPOx (Kitasatospora aureofaciens) (protein)
chain: MITRYTDTLVVGSGPVGATFARTLVESGREVLMVDAGAQLSPRPGEHLKNAYIYQHNTNLFASIIRGHLHLLSVPTSARAELAVDPAAMAELGSNRSSARNAENPDQDPYRNLSAAAACYAVGGMGTHWTGATPRHHPVLERYDGISDQEWDGLYGEAERLLRVSAREFDFSIRQHLVTEALRREFSELPDGYQVQSLPLAARRRRDNPRMVHWTGVDTVLGDLADGHPLFSLLPQHLCTRLVLDRDGTRIAYAEVRDLNRSETVRVVADNYVVAAGAVLAPQLLHASGIRPAALGRYLTEHPMAFCQVILLKDLVEQARTDQRFGGQVARHTTLFPDDDLPIPVDDPEPNVWIPVSEGRPWHAQITRDAFHYGDVPPHVDGRLIVDLRWFGIVEPRPDNRVTFSDTRTDVMGMPQPTFEYALSPQDAERQHAMMAEMMRAATALGGFLPGSEPRFTAPGLPLHIAGTIRMGDDPQSSVVDTDSRVWGLENLYLGGNGVIPTGTACNPTLTSVAMALKAAHHLAGSREARERRRTGADEVLAVRS
notes: full-length synthetic gene, C-terminal 6xHis kept, N-terminal T7 tag excluded, pET-21b(+), E. coli T7 Express; no signal peptide predicted
What is called kcat is the number of substrate molecules converted per active site and unit of time at saturation. Consider B1, for which, in series [3], the Km was determined as 28700 ± 2400 µM, the Vmax worked out at 0.8 µmol/min/mg, the turnover number (kcat) was determined as 1.8 ± 0.1 s⁻¹ and the kcat/Km was found to be 60 M⁻¹ s⁻¹. In series [4], the Michaelis-Menten constant (Km) was determined as 80 ± 100 µM, the Vmax stood at 12.2 µmol/min/mg, the kcat is 24.9 ± 7.1 s⁻¹ and the kcat/Km came out at 311000 M⁻¹ s⁻¹. Besides, in series [5], the Michaelis-Menten constant (Km) was determined as 30 ± 0 µM, the Vmax stood at 4.4 µmol/min/mg, the turnover number (kcat) was found to be 9.4 ± 1.1 s⁻¹ and the kcat/Km was 313000 M⁻¹ s⁻¹.
